Test results reported in patent US20240343802A1 (Zymeworks, published 2024).

T1: CD19 on CD19-expressing Raji B cells (human, UniProt P15391 20-556)
T1 construct: whole, on cells
T1 sequence (looked up): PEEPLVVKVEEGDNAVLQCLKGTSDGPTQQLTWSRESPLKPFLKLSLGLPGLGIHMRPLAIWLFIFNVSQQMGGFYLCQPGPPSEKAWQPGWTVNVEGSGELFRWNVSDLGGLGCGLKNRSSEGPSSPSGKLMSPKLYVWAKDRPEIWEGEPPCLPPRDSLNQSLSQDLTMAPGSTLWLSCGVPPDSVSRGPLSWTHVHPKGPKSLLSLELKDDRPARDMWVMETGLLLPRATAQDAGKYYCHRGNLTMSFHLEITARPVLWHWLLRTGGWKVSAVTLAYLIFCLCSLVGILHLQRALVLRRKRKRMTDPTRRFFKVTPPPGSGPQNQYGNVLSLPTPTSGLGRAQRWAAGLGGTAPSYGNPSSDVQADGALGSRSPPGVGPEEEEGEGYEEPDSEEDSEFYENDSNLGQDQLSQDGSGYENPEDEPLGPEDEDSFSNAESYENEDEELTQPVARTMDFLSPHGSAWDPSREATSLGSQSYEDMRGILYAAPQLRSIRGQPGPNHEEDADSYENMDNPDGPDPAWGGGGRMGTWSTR

T2: CD20 on CD19 and CD20-expressing Raji B cells (human, UniProt P11836 1-297)
T2 construct: whole, on cells
T2 sequence (looked up): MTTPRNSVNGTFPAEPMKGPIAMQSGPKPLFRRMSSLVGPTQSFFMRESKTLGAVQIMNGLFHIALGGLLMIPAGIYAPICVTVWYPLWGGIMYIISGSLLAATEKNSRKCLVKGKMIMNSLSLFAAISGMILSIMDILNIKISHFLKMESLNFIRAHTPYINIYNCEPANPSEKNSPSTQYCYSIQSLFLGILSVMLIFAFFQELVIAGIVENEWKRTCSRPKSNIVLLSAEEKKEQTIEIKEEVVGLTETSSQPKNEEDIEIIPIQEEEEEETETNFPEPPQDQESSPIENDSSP


What was measured:
[1] = molecular target: T1, CD19 on CD19-expressing Raji B cells; assay: FACS, Raji cells
[2] = molecular target: T2, CD20 on CD19 and CD20-expressing Raji B …; assay: FACS, Raji cells
[3] = molecular target: T3, CD3 on CD3-expressing T cells (Jurkat, HPB-ALL) (UniProt P07766 23-207); assay: FACS, Jurkat cells
T3 construct: whole, on cells; A multi-chain complex on cells; also called CD3 complex

Binder | Bmax (OD450) [1] | Kd [1] | Bmax (OD450) [2] | Kd [2] | Bmax (OD450) [3] | Kd [3]
v5851, hybrid: aCD3-BiTEx_I2C_scFvFc (VHVL) chain A / aCD19-MOR208_Fab chain B and light chain (bispecific antibody) chain 1: not shown chain 2: not shown chain 3: DIVMTQSPATLSLSPGERATLSCRSSKSLQNVNGNTYLYWFQQKPGQSPQLLIYRMSNLNSGVPDRFSGSGSGTEFTLTISSLEPEDFAVYYCMQHLEYPITFGAGTKLEIKRTVAAPSVFIFPPSDEQLKSGTASVVCLLNNFYPREAKVQWKVDNALQSGNSQESVTEQDSKDSTYSLSSTLTLSKADYEKHKVYACEVTHQGLSSPVTKSFNRGEC | 3.88 OD450 | 1.38 nM |  |  |  | 
v1813, common light chain: aCD3-foralumab_Fab chain A / aCD20-Ofatumumab_Fab chain B, Ofatumumab light chain (bispecific antibody, human IgG1, kappa, The single light chain is shared by both Fabs) chain 1: not shown chain 2: not shown chain 3: not shown |  |  | 6.4 OD450 | 4.04 nM | 2.54 OD450 | 691 nM
v4542, cyno/human cross-reactive anti-CD3 BiTE 12C (VH-VL) scFv / anti-CD19 MOR208 (VH-VL) scFv heterodimeric knock-out Fc (bispecific antibody) chain 1: not shown chain 2: EVQLVESGGGLVKPGGSLKLSCAASGYTFTSYVMHWVRQAPGKGLEWIGYINPYNDGTKYNEKFQGRVTISSDKSISTAYMELSSLRSEDTAMYYCARGTYYYGTRVFDYWGQGTLVTVSSGGGGSGGGGSGGGGSDIVMTQSPATLSLSPGERATLSCRSSKSLQNVNGNTYLYWFQQKPGQSPQLLIYRMSNLNSGVPDRFSGSGSGTEFTLTISSLEPEDFAVYYCMQHLEYPITFGAGTKLEIKAAEPKSSDKTHTCPPCPAPEAAGGPSVFLFPPKPKDTLMISRTPEVTCVVVSVSHEDPEVKFNWYVDGVEVHNAKTKPREEQYNSTYRVVSVLTVLHQDWLNGKEYKCKVSNKALPAPIEKTISKAKGQPREPQVYVLPPSRDELTKNQVSLLCLVKGFYPSDIAVEWESNGQPENNYLTWPPVLDSDGSFFLYSKLTVDKSRWQQGNVFSCSVMHEALHNHYTQKSLSLSPGK | 2.96 OD450 | 0.7 nM |  |  |  | 
v5852, hybrid: aCD3-Teplizumab-hOKT3_Fab chain A and light chain / aCD19-MOR208_scFvFc (VHVL) chain B (bispecific antibody, human IgG1, kappa, L234A L235A) chain 1: QVQLVQSGGGVVQPGRSLRLSCKASGYTFTRYTMHWVRQAPGKGLEWIGYINPSRGYTNYNQKVKDRFTISRDNSKNTAFLQMDSLRPEDTGVYFCARYYDDHYCLDYWGQGTPVTVSSASTKGPSVFPLAPSSKSTSGGTAALGCLVKDYFPEPVTVSWNSGALTSGVHTFPAVLQSSGLYSLSSVVTVPSSSLGTQTYICNVNHKPSNTKVDKKVEPKSCDKTHTCPPCPAPELLGGPSVFLFPPKPKDTLMISRTPEVTCVVVDVSHEDPEVKFNWYVDGVEVHNAKTKPREEQYNSTYRVVSVLTVLHQDWLNGKEYKCKVSNKALPAPIEKTISKAKGQPREPQVYVYPPSRDELTKNQVSLTCLVKGFYPSDIAVEWESNGQPENNYKTTPPVLDSDGSFALVSKLTVDKSRWQQGNVFSCSVMHEALHNHYTQKSLSLSPGK chain 2: EVQLVESGGGLVKPGGSLKLSCAASGYTFTSYVMHWVRQAPGKGLEWIGYINPYNDGTKYNEKFQGRVTISSDKSISTAYMELSSLRSEDTAMYYCARGTYYYGTRVFDYWGQGTLVTVSSGGGGSGGGGSGGGGSDIVMTQSPATLSLSPGERATLSCRSSKSLQNVNGNTYLYWFQQKPGQSPQLLIYRMSNLNSGVPDRFSGSGSGTEFTLTISSLEPEDFAVYYCMQHLEYPITFGAGTKLEIKAAEPKSSDKTHTCPPCPAPEAAGGPSVFLFPPKPKDTLMISRTPEVTCVVVSVSHEDPEVKFNWYVDGVEVHNAKTKPREEQYNSTYRVVSVLTVLHQDWLNGKEYKCKVSNKALPAPIEKTISKAKGQPREPQVYVLPPSRDELTKNQVSLLCLVKGFYPSDIAVEWESNGQPENNYLTWPPVLDSDGSFFLYSKLTVDKSRWQQGNVFSCSVMHEALHNHYTQKSLSLSPGK chain 3: DIQMTQSPSSLSASVGDRVTITCSASSSVSYMNWYQQTPGKAPKRWIYDTSKLASGVPSRFSGSGSGTDYTFTISSLQPEDIATYYCQQWSSNPFTFGQGTKLQITRTVAAPSVFIFPPSDEQLKSGTASVVCLLNNFYPREAKVQWKVDNALQSGNSQESVTEQDSKDSTYSLSSTLTLSKADYEKHKVYACEVTHQGLSSPVTKSFNRGEC |  |  |  |  | 2.21 OD450 | 25.2 nM
v5850, hybrid: aCD3-BiTEx_I2C_scFvFc (VHVL) chain A / aCD20-Ofatumumab_Fab chain B and light chain (bispecific antibody) chain 1: not shown chain 2: not shown chain 3: not shown |  |  | 4.24 OD450 | 3.6 nM |  | 
v1821, common light chain: aCD3-12F6_Fab chain A / aCD20-Rituximab_Fab chain B, Rituximab light chain (bispecific antibody, human IgG1, kappa, The single light chain is shared by both Fabs) chain 1: QVQLVQSGGGVVQPGRSLRLSCKASGYTFTSYTMHWVRQAPGKGLEWIGYINPSSGYTKYNQKFKDRFTISADKSKSTAFLQMDSLRPEDTGVYFCARWQDYDVYFDYWGQGTPVTVSSASTKGPSVFPLAPSSKSTSGGTAALGCLVKDYFPEPVTVSWNSGALTSGVHTFPAVLQSSGLYSLSSVVTVPSSSLGTQTYICNVNHKPSNTKVDKKVEPKSCDKTHTCPPCPAPELLGGPSVFLFPPKPKDTLMISRTPEVTCVVVDVSHEDPEVKFNWYVDGVEVHNAKTKPREEQYNSTYRVVSVLTVLHQDWLNGKEYKCKVSNKALPAPIEKTISKAKGQPREPQVYVYPPSRDELTKNQVSLTCLVKGFYPSDIAVEWESNGQPENNYKTTPPVLDSDGSFALVSKLTVDKSRWQQGNVFSCSVMHEALHNHYTQKSLSLSPGK chain 2: not shown chain 3: QIVLSQSPAILSASPGEKVTMTCRASSSVSYIHWFQQKPGSSPKPWIYATSNLASGVPVRFSGSGSGTSYSLTISRVEAEDAATYYCQQWTSNPPTFGGGTKLEIKRTVAAPSVFIFPPSDEQLKSGTASVVCLLNNFYPREAKVQWKVDNALQSGNSQESVTEQDSKDSTYSLSSTLTLSKADYEKHKVYACEVTHQGLSSPVTKSFNRGEC |  |  | 4.71 OD450 | 122 nM | 2.11 OD450 | 182 nM
v1823, common light chain: aCD3-12F6_Fab chain A / aCD20-Tositumumab_Fab chain B, Tositumumab light chain (bispecific antibody, human IgG1, kappa, The single light chain is shared by both Fabs) chain 1: QVQLVQSGGGVVQPGRSLRLSCKASGYTFTSYTMHWVRQAPGKGLEWIGYINPSSGYTKYNQKFKDRFTISADKSKSTAFLQMDSLRPEDTGVYFCARWQDYDVYFDYWGQGTPVTVSSASTKGPSVFPLAPSSKSTSGGTAALGCLVKDYFPEPVTVSWNSGALTSGVHTFPAVLQSSGLYSLSSVVTVPSSSLGTQTYICNVNHKPSNTKVDKKVEPKSCDKTHTCPPCPAPELLGGPSVFLFPPKPKDTLMISRTPEVTCVVVDVSHEDPEVKFNWYVDGVEVHNAKTKPREEQYNSTYRVVSVLTVLHQDWLNGKEYKCKVSNKALPAPIEKTISKAKGQPREPQVYVYPPSRDELTKNQVSLTCLVKGFYPSDIAVEWESNGQPENNYKTTPPVLDSDGSFALVSKLTVDKSRWQQGNVFSCSVMHEALHNHYTQKSLSLSPGK chain 2: not shown chain 3: QIVLSQSPAILSASPGEKVTMTCRASSSVSYMHWYQQKPGSSPKPWIYAPSNLASGVPARFSGSGSGTSYSLTISRVEAEDAATYYCQQWSFNPPTFGAGTKLELKRTVAAPSVFIFPPSDEQLKSGTASVVCLLNNFYPREAKVQWKVDNALQSGNSQESVTEQDSKDSTYSLSSTLTLSKADYEKHKVYACEVTHQGLSSPVTKSFNRGEC |  |  |  |  | 0.88 OD450 | 68.8 nM
v6325, hybrid: aCD3-Teplizumab-hOKT3_Fab chain A and light chain / aCD20-Ofatumumab_scFvFc (VHVL) chain B (bispecific antibody, human IgG1, kappa) chain 1: QVQLVQSGGGVVQPGRSLRLSCKASGYTFTRYTMHWVRQAPGKGLEWIGYINPSRGYTNYNQKVKDRFTISRDNSKNTAFLQMDSLRPEDTGVYFCARYYDDHYCLDYWGQGTPVTVSSASTKGPSVFPLAPSSKSTSGGTAALGCLVKDYFPEPVTVSWNSGALTSGVHTFPAVLQSSGLYSLSSVVTVPSSSLGTQTYICNVNHKPSNTKVDKKVEPKSCDKTHTCPPCPAPELLGGPSVFLFPPKPKDTLMISRTPEVTCVVVDVSHEDPEVKFNWYVDGVEVHNAKTKPREEQYNSTYRVVSVLTVLHQDWLNGKEYKCKVSNKALPAPIEKTISKAKGQPREPQVYVYPPSRDELTKNQVSLTCLVKGFYPSDIAVEWESNGQPENNYKTTPPVLDSDGSFALVSKLTVDKSRWQQGNVFSCSVMHEALHNHYTQKSLSLSPGK chain 2: not shown chain 3: DIQMTQSPSSLSASVGDRVTITCSASSSVSYMNWYQQTPGKAPKRWIYDTSKLASGVPSRFSGSGSGTDYTFTISSLQPEDIATYYCQQWSSNPFTFGQGTKLQITRTVAAPSVFIFPPSDEQLKSGTASVVCLLNNFYPREAKVQWKVDNALQSGNSQESVTEQDSKDSTYSLSSTLTLSKADYEKHKVYACEVTHQGLSSPVTKSFNRGEC |  |  | 6.44 OD450 | 11.9 nM | 2.51 OD450 | 1.58 nM
